Results from publication PMC10450195, “Histone divergence in trypanosomes results in unique alterations to nucleosome structure” (Nucleic Acids Research, 2023).

B1: Trypanosoma brucei histone H4 (natural protein)
chain: not shown
notes: also called Tb H4
B2: Trypanosoma brucei histone H2B (natural protein, Trypanosoma brucei brucei)
chain: ATPKSTPAKTRKEAKKTRRQRKRTWNVYVSRSLRSINSQMSMTSRTMKIVNSFVNDLFERIAAEAATIVRVNRKRTLGARELQTAVRLVLPADLAKHAMAEGTKAVSHASS
notes: also called Tb H2B

Columns and labels:
[1] = target: B2; assay: cryo-EM structure; conditions: both partners purified
[2] = target: T1, Trypanosoma brucei histone H2A (Trypanosoma brucei brucei, UniProt Q57YA3 2-134); assay: cryo-EM structure; conditions: both partners purified
T1 construct: also called Tb H2A
T1 sequence: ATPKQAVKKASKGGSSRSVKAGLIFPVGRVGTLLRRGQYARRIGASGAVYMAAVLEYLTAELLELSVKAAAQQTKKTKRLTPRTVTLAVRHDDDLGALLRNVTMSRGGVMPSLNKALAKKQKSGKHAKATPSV

B1
binding result [1]: binds

B2
binding result [2]: binds
